Reference: the supplement of paper PMC11865577

The sequences below were run on TO-3-N3-2 (biotin conjugate) (assay: pull-down binding Z-score (relative to library population); higher = stronger binding). Details: RNA library: Library-2.
In short: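 Streptavidin beads bearing 100 pmol of a biotin-conjugated small molecule were incubated for 60 min at 25 °C with 1 μg of heat-folded, Cy5- or Cy3-end-labelled RNA library in phosphate/NaCl/KCl buffer. Hot SDS eluted the RNA that stayed bound after three washes, and this RNA was hybridised for 20 h at 55.5 °C to a DNA barcode microarray. Binding was expressed as a Z-score against the library mean and standard deviation, after subtraction of a beads-only signal and trimmed averaging of barcoded replicate probes.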

Sequence	pull-down binding Z-score
UGUGUGCUGAGAAAAUUCACACA [hsa-mir-5580]	0.149
UGUGUGUACUCACAGCCCCUCACACA [hsa-mir-942]	-0.262
UGUGUGUCGCUCCGGGUCCACG [hsa-mir-574]	-0.0762
UGUGUUCAGUGGAACCAAGGUAAACACA [hsa-mir-624]	0.95
UGUUAAGGCAUGUUCAGGAACA [hsa-mir-1265]	0.401
UGUUAGUGUUCAAGUCUACA [hsa-mir-4802]	-0.398
UGUUCACUUUCUAUAUGAUGAAUA [hsa-mir-656]	-0.523
UGUUCAGUGGGAUUUGGAGA [hsa-mir-8061]	0.152
UGUUCAUGUCUCUCUGUGCACAGGGGACGAGAGUCA [hsa-mir-4420]	-0.232
UGUUCAUUCACAUGAUCAUAAGUGGACA [hsa-mir-4643]	0.169
UGUUCGCUUUAUUUAUGAUGAAUCA [hsa-mir-539]	-0.121
UGUUCGUUUUGCUCAUGUCGAAUC [hsa-mir-487b]	-0.391
UGUUGACUGAAUAAUAAACA [hsa-mir-3139]	-0.319
UGUUGAGCGCAGUAAGACAACA [hsa-mir-3529]	-0.0511
UGUUGGCAGCCCAAGAUGACA [hsa-mir-4686]	-0.0148
UGUUGGGGGGACA [hsa-mir-4262]	1.63
UGUUGGUUGAAGAUGCCUUUCAACA [hsa-mir-552]	-0.396
UGUUUAACUCCUCUCCACGUGAACA [hsa-mir-499a]	-0.0532
UGUUUAUGUUAUUUAUGGUUAAACA [hsa-mir-376c]	-0.269
UGUUUCUUUAAUGAGGACGAAACA [hsa-mir-329-1]	0.302
UGUUUCUUUAUUGAGGACGAAACA [hsa-mir-329-2]	-0.343
UGUUUGUGUCUAAACUAUCAAACG [hsa-mir-122]	-0.158
UGUUUUUGCCAUUAAAAAUAAUGGCAUUAAAAGUAAUGGCAAAAACG [hsa-mir-548al]	-0.431

Sequence	pull-down binding Z-score
UUAAAUGUGUCAUUUAAAAAUUCAG [hsa-mir-1972-1_1972-2]	0.161
UUAACAUGUUGAGCAUUACUCAUGUUAG [hsa-mir-3684]	-0.175
UUAACCUAAAAUGAGAAGGCUAA [hsa-mir-633]	-0.223
UUAAUGAGGCCAUAGA [hsa-mir-6863]	-0.277
UUACCCAACGUCUCUGAGUCUCGGUUUUGAGAGGGUGAGUAA [hsa-mir-7973-1]	-0.0539
UUACUCACCCUCUCAAAACCGAGACUCAGAGACGUUGGGUAA [hsa-mir-7973-2]	0.138
UUACUGCAGGGAUCUUAGCAGUAC [hsa-mir-583]	0.0351
UUAGCCCAGCAAUGGGAGAGUGCUAA [hsa-mir-4636]	0.32
UUAUACCUGAUGCUCACGUAUAA [hsa-mir-208a]	-0.0463
UUAUCUGUCACCAGUCAGAUAACUGUCACCAGUCAGUUAA [hsa-mir-4764]	-0.324
UUAUGUUUCUGAUCCGAAUAUAA [hsa-mir-208b]	-0.345
UUAUUCAGAGAGGCUAGAUCCUCUGUGUUGAGAAGGAUCA [hsa-mir-433]	0.23
UUAUUUGAGAUGAGUUACAUCUUGGAGG [hsa-mir-1204]	-0.295
UUCACAGACUCUCCAAAAGUCUGAA [hsa-mir-4670]	-0.404
UUCAGAGUCAAUAUAAUUUUCUAG [hsa-mir-29a]	0.27
UUCAGAUUUUGGAACAUUUCGGAUUUUGGA [hsa-mir-1290]	-0.35
UUCAGCCUAAAGCAAUGAGAAGCCUCUGAAAGGCUGA [hsa-mir-1827]	-0.0588
UUCAUAGGGAAGCCUUUCCAUGAA [hsa-mir-4738]	-0.446
UUCAUGUUCACUGAAAGGUAGAUUUUAAAAACAUGAA [hsa-mir-4790]	0.268
UUCAUUCAUUCGUUUGCACAUUCGGUGAA [hsa-mir-493]	-0.21
UUCAUUUUAUUUAUGAUGAG [hsa-mir-496]	-0.288
UUCCGGUGAUUAUCACAGCCAUGCCUUUACCUCCAGAA [hsa-mir-4493]	-0.0994
UUCCUUGUCUGUAGCCAUGUCUAUGGGCUCUUGAG [hsa-mir-571]	-0.0353
